Assays:
Assay in all cases: ELISA, immobilised recombinant L7/L12 (10 ng/mL), antibody 10 ug/mL
[1] = biological target: カンピロバクター・ジェジュニ(CJ)のリボソームタンパク質L7/L12 (カンピロバクター・ジェジュニ (Campylobacter jejuni))
[2] = biological target: クラミジア・トラコマチス(CT)のリボソームタンパク質L7/L12 (クラミジア・トラコマチス (Chlamydia trachomatis))
[3] = biological target: クレブシエラ・ニューモニエ(KP)のリボソームタンパク質L7/L12 (クレブシエラ・ニューモニエ (Klebsiella pneumoniae))
[4] = biological target: サルモネラ菌(SE)のリボソームタンパク質L7/L12 (サルモネラ菌 (Salmonella enteritidis))
[5] = biological target: モラキセラ菌(MC)のリボソームタンパク質L7/L12 (モラキセラ菌 (Moraxella catarrhalis))
[6] = biological target: リステリア・モノサイトゲネス(LM)のリボソームタンパク質L7/L12 (リステリア・モノサイトゲネス (Listeria monocytogenes))
[7] = biological target: レジオネラ・ニューモフィラ(LP)のリボソームタンパク質L7/L12 (レジオネラ・ニューモフィラ (Legionella pneumophila))
[8] = biological target: 淋菌(NG)のリボソームタンパク質L7/L12 (淋菌 (Neisseria gonorrhoeae))
[9] = biological target: 溶連菌(SPY)のリボソームタンパク質L7/L12 (溶連菌 (Streptococcus pyogenes))
[10] = biological target: 百日咳菌(BP)のリボソームタンパク質L7/L12 (百日咳菌 (Bordetella pertussis))
[11] = biological target: 緑膿菌(PA)のリボソームタンパク質L7/L12 (緑膿菌 (Pseudomonas aeruginosa))
[12] = biological target: 肺炎クラミジア(CP)のリボソームタンパク質L7/L12 (肺炎クラミジア (Chlamydia pneumoniae))
[13] = biological target: 肺炎マイコプラズマ(MP)のリボソームタンパク質L7/L12 (肺炎マイコプラズマ (Mycoplasma pneumoniae))
[14] = biological target: 肺炎球菌(SP)のリボソームタンパク質L7/L12 (肺炎球菌 (Streptococcus pneumoniae))
[15] = biological target: 髄膜炎菌(NM)のリボソームタンパク質L7/L12 (髄膜炎菌 (Neisseria meningitidis))
[16] = biological target: 黄色ブドウ球菌(SA)のリボソームタンパク質L7/L12 (黄色ブドウ球菌 (Staphylococcus aureus))

Measured: absorbance at 450 nm (absorbance (450 nm))

B1: 汎用性抗体B(LP54A3) (antibody, V domains shown)
VH: EVQLQQSGAELVKPGASVRLSCSASGFNIKDTYMHWMRQRPEQGLEWIGRIDPANGNAKYDPKFQVKATITADTSSNTASLQFSSLTSEDTAVYFCASESLDDMYYFDYWGQGTTLTVSS
VL: DIVMTQSQKFMSTSVGDRVSVTCKASQNVGVNVAWYQQKPGQSPKALIYSASYRYSGVPDRFTGSGSGTDFTLTISNVQSEDLAEYFCQQYHSYLYTFGGGTKLEIK
> 0.3: all assays above

B2: 汎用性抗体A(PA51B2) (antibody, V domains shown)
VH: QVQLQQPGSVLVRPGASVKLSCKPSGYTFTGSWMHWTKQRPGQGLEWIGEIHPYSGNTNYNEKFRVKATLTVDTSSSTTYVDLSSLTSDDSAVYYCASGDFDAGFTYWGQGTLVTVSA
VL: DIVLTQSPASLAVSLGRRATISCKASQSVDYDGDSYMNWYQQKPGQPPKLLIYVASNLESGIPARFSGSGSGTDFTLNIHPVEEEDAATYYCQQTNEDPFTFGAGTKLELK
> 0.3: [7]

B3: 汎用性抗体C(CP141A190.1) (antibody, V domains shown)
VH: QVQLQQPGAELVKPGASVKLSCKTSGYNFTSNWIHWVKQRPGQGLEWIGEINPSNGRANYNEKFKNKATLTVDKSSSTAFMHLSSLTSEDSAVYFCSRGDFDEGFTYWGQGTLVTVSA
VL: QIVLTQSPAIMSASLGERVTMTCTASSNVNSDYLHWYQQKPGSSPRLWIYTTSNLASGVPTRFSGNGSGTSYSLTISSMEAEDAATYYCHQYHRSPRTFGGGTKLEIK
> 0.3: [7]

From patent publication JP2022109630A
